Holding throughout (experiment): cell-based or functional assay
For experiment [1], the target named is T1, mouse CXCR3 (mCXCR3) expressed on Ba/F3 transfectant cells (mouse, UniProt O88410 1-367).
T1 sequence (looked up): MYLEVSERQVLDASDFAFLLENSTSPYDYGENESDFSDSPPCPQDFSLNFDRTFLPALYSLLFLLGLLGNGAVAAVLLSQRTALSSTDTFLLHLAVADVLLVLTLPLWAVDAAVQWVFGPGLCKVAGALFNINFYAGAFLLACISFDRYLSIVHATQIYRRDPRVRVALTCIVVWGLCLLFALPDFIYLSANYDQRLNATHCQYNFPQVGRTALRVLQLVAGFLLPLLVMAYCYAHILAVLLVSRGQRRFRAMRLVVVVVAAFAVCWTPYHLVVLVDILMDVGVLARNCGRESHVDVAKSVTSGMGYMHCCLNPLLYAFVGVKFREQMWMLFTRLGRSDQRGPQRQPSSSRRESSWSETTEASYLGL

Experiment [2] addresses T1, mouse CXCR3 (mCXCR3) expressed on Ba/F3 …. This is another data set of the same source.
Experiment [3] has the same target. The source holds these as a separate data set.
The target is the same in experiment [4]. The source holds these as a separate data set.
For experiment [5] the target is unchanged. The source holds these as a separate data set.

Like-named read-outs stand apart in the source and are kept apart here.

B1: hCXCL10R75A.0642-G1T4k.one//VHn-G1T4h.one.H435R (Fc fusion)
chain 1: VPLSRTVRCTCISISNQCVNPRSLEKLEIIPASQFCPRVEIIATMKKKGEKRCLNPESKCIKNLLKAVSKERSKASPEPKSSDKTHTCPPCPAPELRRGPSVFLFPPKPKDTLMISRTPEVTCVVVDVSHEDPEVKFNWYVDGVEVHNAKTKPREEQYNSTYRVVSVLTVLHQDWLNGKEYKCKVSNKGLPSSIEKTISKAKGQPREPQVCTLPPSREEMTKNQVSLWCLVKGFYPSDIAVEWESNGQPENNYKTTPPVLDSDGSFFLYSKLTVDKSRWQEGNVFSCSVMHEALHNHYTQKSLSLSP
chain 2: EPKSSDKTHTCPPCPAPELRRGPSVFLFPPKPKDTLMISRTPEVTCVVVDVSHEDPEVKFNWYVDGVEVHNAKTKPREEQYNSTYRVVSVLTVLHQDWLNGKEYKCKVSNKGLPSSIEKTISKAKGQPREPQVYTLPPSRCEMTKNQVSLSCAVKGFYPSDIAVEWESNGQPENNYKTTPPVLDSDGSFFLVSKLTVDKSRWQEGNVFSCSVMHEALHNRYTQKSLSLSP
Take B1: in experiment [1], the “cell migration-inducing activity (BaF3/mCXCR3 transwell) at 3 nM, relative to hCXCL10R75A Fc fusion = 100%” value turned out to be 196%; the “cell migration-inducing activity (BaF3/mCXCR3 transwell) at 10 nM, relative to hCXCL10R75A Fc fusion = 100%” value was 150%; the “cell migration-inducing activity (BaF3/mCXCR3 transwell) at 30 nM, relative to hCXCL10R75A Fc fusion = 100%” value was found to be 106%; the “cell migration-inducing activity (BaF3/mCXCR3 transwell) at 100 nM, relative to hCXCL10R75A Fc fusion = 100%” value was determined as 98%. Further, in experiment [1], the “cell migration-inducing activity (BaF3/mCXCR3 transwell) at 300 nM, relative to hCXCL10R75A Fc fusion = 100%” value was 116% and the “cell migration-inducing activity (BaF3/mCXCR3 transwell) at 1000 nM, relative to hCXCL10R75A Fc fusion = 100%” value was 80%. For the same molecule, in experiment [2], the “cell migration-inducing activity (BaF3/mCXCR3 transwell) at 3 nM, relative to hCXCL10R75A Fc fusion = 100%” value is 196%; the “cell migration-inducing activity (BaF3/mCXCR3 transwell) at 10 nM, relative to hCXCL10R75A Fc fusion = 100%” value worked out at 150%; the “cell migration-inducing activity (BaF3/mCXCR3 transwell) at 30 nM, relative to hCXCL10R75A Fc fusion = 100%” value is 106%; the “cell migration-inducing activity (BaF3/mCXCR3 transwell) at 100 nM, relative to hCXCL10R75A Fc fusion = 100%” value is 98%. Further, in experiment [2], the “cell migration-inducing activity (BaF3/mCXCR3 transwell) at 300 nM, relative to hCXCL10R75A Fc fusion = 100%” value amounted to 116% and the “cell migration-inducing activity (BaF3/mCXCR3 transwell) at 1000 nM, relative to hCXCL10R75A Fc fusion = 100%” value worked out at 80%.

B2: hCXCL10R75A.0613-G1T4k.one//VHn-G1T4h.one.H435R (Fc fusion)
chain 1: YVLSRTPRCTCISISNQCVNPRSLEKLEIIPASQFCPRVEIIATMKKKGEKRCLNPESKCIKNLLKAVSKERSKASPEPKSSDKTHTCPPCPAPELRRGPSVFLFPPKPKDTLMISRTPEVTCVVVDVSHEDPEVKFNWYVDGVEVHNAKTKPREEQYNSTYRVVSVLTVLHQDWLNGKEYKCKVSNKGLPSSIEKTISKAKGQPREPQVCTLPPSREEMTKNQVSLWCLVKGFYPSDIAVEWESNGQPENNYKTTPPVLDSDGSFFLYSKLTVDKSRWQEGNVFSCSVMHEALHNHYTQKSLSLSP
chain 2: EPKSSDKTHTCPPCPAPELRRGPSVFLFPPKPKDTLMISRTPEVTCVVVDVSHEDPEVKFNWYVDGVEVHNAKTKPREEQYNSTYRVVSVLTVLHQDWLNGKEYKCKVSNKGLPSSIEKTISKAKGQPREPQVYTLPPSRCEMTKNQVSLSCAVKGFYPSDIAVEWESNGQPENNYKTTPPVLDSDGSFFLVSKLTVDKSRWQEGNVFSCSVMHEALHNRYTQKSLSLSP
As to B2, in experiment [3], the “cell migration-inducing activity at 3 nM, relative to hCXCL10R75A.0670 Fc fusion = 100%” value came out at 209%; the “cell migration-inducing activity at 10 nM, relative to hCXCL10R75A.0670 Fc fusion = 100%” value amounted to 132%; the “cell migration-inducing activity at 30 nM, relative to hCXCL10R75A.0670 Fc fusion = 100%” value was found to be 110%; the “cell migration-inducing activity at 100 nM, relative to hCXCL10R75A.0670 Fc fusion = 100%” value is 102%. Also, in experiment [3], the “cell migration-inducing activity at 300 nM, relative to hCXCL10R75A.0670 Fc fusion = 100%” value was determined as 93% and the “cell migration-inducing activity at 1000 nM, relative to hCXCL10R75A.0670 Fc fusion = 100%” value worked out at 49%.

B3: hCXCL10R75A.0644-G1T4k.one//VHn-G1T4h.one.H435R (Fc fusion)
chain 1: VVLSRTVRCTCISISNQCVNPRSLEKLEIIPASQFCPRVEIIATMKKKGEKRCLNPESKCIKNLLKAVSKERSKASPEPKSSDKTHTCPPCPAPELRRGPSVFLFPPKPKDTLMISRTPEVTCVVVDVSHEDPEVKFNWYVDGVEVHNAKTKPREEQYNSTYRVVSVLTVLHQDWLNGKEYKCKVSNKGLPSSIEKTISKAKGQPREPQVCTLPPSREEMTKNQVSLWCLVKGFYPSDIAVEWESNGQPENNYKTTPPVLDSDGSFFLYSKLTVDKSRWQEGNVFSCSVMHEALHNHYTQKSLSLSP
chain 2: EPKSSDKTHTCPPCPAPELRRGPSVFLFPPKPKDTLMISRTPEVTCVVVDVSHEDPEVKFNWYVDGVEVHNAKTKPREEQYNSTYRVVSVLTVLHQDWLNGKEYKCKVSNKGLPSSIEKTISKAKGQPREPQVYTLPPSRCEMTKNQVSLSCAVKGFYPSDIAVEWESNGQPENNYKTTPPVLDSDGSFFLVSKLTVDKSRWQEGNVFSCSVMHEALHNRYTQKSLSLSP
On to B3, for which, in experiment [2], the “cell migration-inducing activity (BaF3/mCXCR3 transwell) at 3 nM, relative to hCXCL10R75A Fc fusion = 100%” value turned out to be 174%; the “cell migration-inducing activity (BaF3/mCXCR3 transwell) at 10 nM, relative to hCXCL10R75A Fc fusion = 100%” value was 144%; the “cell migration-inducing activity (BaF3/mCXCR3 transwell) at 30 nM, relative to hCXCL10R75A Fc fusion = 100%” value was determined as 109%; the “cell migration-inducing activity (BaF3/mCXCR3 transwell) at 100 nM, relative to hCXCL10R75A Fc fusion = 100%” value was 107%. For the same molecule, in experiment [2], the “cell migration-inducing activity (BaF3/mCXCR3 transwell) at 300 nM, relative to hCXCL10R75A Fc fusion = 100%” value was found to be 153% and the “cell migration-inducing activity (BaF3/mCXCR3 transwell) at 1000 nM, relative to hCXCL10R75A Fc fusion = 100%” value was determined as 163%.

B4: hCXCL10R75A.0643-G1T4k.one//VHn-G1T4h.one.H435R (Fc fusion)
chain 1: YVLSRTVRCTCISISNQPVNPRSLEKLEIIPASQFCPRVEIIATMKKKGEKRCLNPESKAIKNLLKAVSKERSKASPEPKSSDKTHTCPPCPAPELRRGPSVFLFPPKPKDTLMISRTPEVTCVVVDVSHEDPEVKFNWYVDGVEVHNAKTKPREEQYNSTYRVVSVLTVLHQDWLNGKEYKCKVSNKGLPSSIEKTISKAKGQPREPQVCTLPPSREEMTKNQVSLWCLVKGFYPSDIAVEWESNGQPENNYKTTPPVLDSDGSFFLYSKLTVDKSRWQEGNVFSCSVMHEALHNHYTQKSLSLSP
chain 2: EPKSSDKTHTCPPCPAPELRRGPSVFLFPPKPKDTLMISRTPEVTCVVVDVSHEDPEVKFNWYVDGVEVHNAKTKPREEQYNSTYRVVSVLTVLHQDWLNGKEYKCKVSNKGLPSSIEKTISKAKGQPREPQVYTLPPSRCEMTKNQVSLSCAVKGFYPSDIAVEWESNGQPENNYKTTPPVLDSDGSFFLVSKLTVDKSRWQEGNVFSCSVMHEALHNRYTQKSLSLSP
For the molecule B4, in experiment [4], the “cell migration-inducing activity (BaF3/mCXCR3 transwell) at 3 nM, relative to hCXCL10R75A Fc fusion = 100%” value was 126%; the “cell migration-inducing activity (BaF3/mCXCR3 transwell) at 10 nM, relative to hCXCL10R75A Fc fusion = 100%” value is 100%; the “cell migration-inducing activity (BaF3/mCXCR3 transwell) at 30 nM, relative to hCXCL10R75A Fc fusion = 100%” value amounted to 129%; the “cell migration-inducing activity (BaF3/mCXCR3 transwell) at 100 nM, relative to hCXCL10R75A Fc fusion = 100%” value worked out at 141%. Moreover, in experiment [4], the “cell migration-inducing activity (BaF3/mCXCR3 transwell) at 300 nM, relative to hCXCL10R75A Fc fusion = 100%” value turned out to be 124% and the “cell migration-inducing activity (BaF3/mCXCR3 transwell) at 1000 nM, relative to hCXCL10R75A Fc fusion = 100%” value amounted to 26%.

B5: hCXCL10R75A.0670-G1T4k.one//VHn-G1T4h.one.H435R (Fc fusion)
chain 1: YVLSRTVRCTCISISNQCVNPRSLEKLEIIPASQFCPRVEIIATMKKKGEKRCLNPESKCIKNLLKAVSKERSKASPEPKSSDKTHTCPPCPAPELRRGPSVFLFPPKPKDTLMISRTPEVTCVVVDVSHEDPEVKFNWYVDGVEVHNAKTKPREEQYNSTYRVVSVLTVLHQDWLNGKEYKCKVSNKGLPSSIEKTISKAKGQPREPQVCTLPPSREEMTKNQVSLWCLVKGFYPSDIAVEWESNGQPENNYKTTPPVLDSDGSFFLYSKLTVDKSRWQEGNVFSCSVMHEALHNHYTQKSLSLSP
chain 2: EPKSSDKTHTCPPCPAPELRRGPSVFLFPPKPKDTLMISRTPEVTCVVVDVSHEDPEVKFNWYVDGVEVHNAKTKPREEQYNSTYRVVSVLTVLHQDWLNGKEYKCKVSNKGLPSSIEKTISKAKGQPREPQVYTLPPSRCEMTKNQVSLSCAVKGFYPSDIAVEWESNGQPENNYKTTPPVLDSDGSFFLVSKLTVDKSRWQEGNVFSCSVMHEALHNRYTQKSLSLSP
B5: in experiment [5], the “cell migration-inducing activity (BaF3/mCXCR3 transwell) at 3 nM, relative to hCXCL10R75A Fc fusion = 100%” value worked out at 195%; the “cell migration-inducing activity (BaF3/mCXCR3 transwell) at 10 nM, relative to hCXCL10R75A Fc fusion = 100%” value was determined as 146%; the “cell migration-inducing activity (BaF3/mCXCR3 transwell) at 30 nM, relative to hCXCL10R75A Fc fusion = 100%” value stood at 132%; the “cell migration-inducing activity (BaF3/mCXCR3 transwell) at 100 nM, relative to hCXCL10R75A Fc fusion = 100%” value came to 132%. For the same molecule, in experiment [5], the “cell migration-inducing activity (BaF3/mCXCR3 transwell) at 300 nM, relative to hCXCL10R75A Fc fusion = 100%” value was determined as 127% and the “cell migration-inducing activity (BaF3/mCXCR3 transwell) at 1000 nM, relative to hCXCL10R75A Fc fusion = 100%” value worked out at 24%. Besides, in experiment [3], the “cell migration-inducing activity at 3 nM, relative to hCXCL10R75A.0670 Fc fusion = 100%” value amounted to 100%; the “cell migration-inducing activity at 10 nM, relative to hCXCL10R75A.0670 Fc fusion = 100%” value turned out to be 100%; the “cell migration-inducing activity at 30 nM, relative to hCXCL10R75A.0670 Fc fusion = 100%” value stood at 100%; the “cell migration-inducing activity at 100 nM, relative to hCXCL10R75A.0670 Fc fusion = 100%” value was found to be 100%. Besides, in experiment [3], the “cell migration-inducing activity at 300 nM, relative to hCXCL10R75A.0670 Fc fusion = 100%” value stood at 100% and the “cell migration-inducing activity at 1000 nM, relative to hCXCL10R75A.0670 Fc fusion = 100%” value was 100%.

For the origin of these results see patent US20250073307A1 (Chugai, published 2025).
